Measured values as given in US20250388664A1 (BIOARCTIC, published 2025).
Like-named read-outs stand apart in the source and are kept apart here.

Key:
AβpE3-40 monomer [1] = target: T1, AβpE3-40 monomer (UniProt P05067 674-711, pyroglutamate at position 3 (N-terminal residue)); assay: SPR, antibody immobilised, monomer injected, 1:1 fit
T1 construct: range 3-40 (Aβ numbering); Synthetic peptide (Bachem/Anaspec), verified monomeric by SEC; also called monomeric AβpE3-40
Procedure: Single cycle kinetics with the binding molecules immobilized on a CM5 chip was used to measure binding to the AβpE3-40 monomer. For the measurements, 5 μg/ml of analyte binding molecule was immobilized on the chip. […] Regeneration of the surface between cycles was done by injecting 30 μl 3 M MgCl₂ (Cytiva, cat. No. 29234600). The binding data was fitted to a 1:1 interaction model.

[2] = target: T2, truncated hTfR1 of SEQ ID NO:122 (human, UniProt P02786 122-760); assay: SPR, FLAG-captured TfR1, bispecific injected, 1:1 fit
T2 construct: also called human TfR1; Human TfR1
T2 sequence (P02786 other isoform, or with tags, fused parts or gaps limits assumed): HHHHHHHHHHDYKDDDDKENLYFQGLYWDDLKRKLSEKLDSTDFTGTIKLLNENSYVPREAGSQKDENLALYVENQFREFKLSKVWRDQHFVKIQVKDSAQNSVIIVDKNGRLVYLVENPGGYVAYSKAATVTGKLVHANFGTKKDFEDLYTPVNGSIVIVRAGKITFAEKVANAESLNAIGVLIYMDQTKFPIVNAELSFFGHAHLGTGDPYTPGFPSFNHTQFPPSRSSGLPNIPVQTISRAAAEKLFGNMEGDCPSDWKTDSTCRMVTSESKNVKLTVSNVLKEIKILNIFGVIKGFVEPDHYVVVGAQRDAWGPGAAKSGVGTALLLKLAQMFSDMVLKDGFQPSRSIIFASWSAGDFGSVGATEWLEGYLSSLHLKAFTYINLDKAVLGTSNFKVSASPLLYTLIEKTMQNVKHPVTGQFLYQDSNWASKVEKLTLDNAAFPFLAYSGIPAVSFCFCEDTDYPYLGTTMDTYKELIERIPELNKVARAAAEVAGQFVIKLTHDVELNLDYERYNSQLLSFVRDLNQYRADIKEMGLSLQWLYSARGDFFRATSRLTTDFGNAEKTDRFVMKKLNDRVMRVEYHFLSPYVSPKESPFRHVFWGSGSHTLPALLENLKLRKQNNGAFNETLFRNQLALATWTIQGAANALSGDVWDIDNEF

AβpE3-42 protofibrils [3] = target: T3, AβpE3-42 protofibrils (UniProt P05067 674-713, pyroglutamate at position 3 (N-terminal residue)); assay: inhibition ELISA, antigen titrated in solution, AβpE3-40 coat
T3 construct: range 3-42 (Aβ numbering); Soluble aggregates made from AβpE3-42 peptide, purified in the void peak of SEC; also called AβpE3-42 PF
T3 sequence (P05067 674-713): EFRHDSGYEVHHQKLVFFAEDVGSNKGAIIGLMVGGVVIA
Procedure: (§1) The tested molecules were incubated at a fixed concentration (0.1 μg/ml) with titrating concentrations of the different AβpE3 antigens. After incubation for 45 min at 900 rpm to reach equilibrium, the samples were added to a blocked and washed ELISA plate with an AβpE3-40 coat (0.5 μM). The samples were incubated on the plate for 25 min without shaking followed by washing, incubation with detection antibody, another washing step and finally incubation with alkaline phosphatase substrate.

AβpE3-40 monomer [4] = target: T1, AβpE3-40 monomer; assay: as above
Procedure: as §1

AβpE3-42 protofibrils [5] = target: T3, AβpE3-42 protofibrils; assay: as above; remark: listed apart in the source
Aβ1-42 protofibrils = target: T4, Aβ1-42 protofibrils (UniProt P05067 672-713); assay: as above
T4 construct: range 1-42 (Aβ numbering); Soluble aggregates made from Aβ1-42 monomer
T4 sequence (P05067 672-713): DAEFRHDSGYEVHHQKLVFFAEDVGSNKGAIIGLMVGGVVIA

AβpE3-40 monomer [6] = target: T1, AβpE3-40 monomer; assay: as above; remark: listed apart in the source
Aβ1-40 monomer = target: T5, Aβ1-40 monomer (UniProt P05067 672-711); assay: as above
T5 construct: range 1-40 (Aβ numbering)
T5 sequence (P05067 672-711): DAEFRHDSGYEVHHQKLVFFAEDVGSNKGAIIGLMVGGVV

AβpE3-42 protofibrils [7] = target: T3, AβpE3-42 protofibrils; assay: SPR, protofibrils immobilised, antibody injected, 1:1 fit, apparent
Procedure: (§2) Single cycle kinetics was also used to measure binding of the antibodies to AβpE3-42 protofibrils. […] Regeneration of the surface between cycles was done by injecting 30 μl 10 mM glycine-HCl pH 1.7. The binding data was fitted to a 1:1 interaction model.
(§3) In all SPR experiments, 1×HBS-EP+ (Cytiva, cat. no. BR100669) was used to dilute antibodies and target antigens. Experiments were performed at 25° C.
(§4) Affinity evaluation and KD determination by surface plasmon resonance: Binding interactions between antigens and antibodies were evaluated by SPR using a Biacore 8K instrument (Cytiva) according to standard procedures.

AβpE3-40 monomer [8] = target: T1, AβpE3-40 monomer; assay: SPR, antibody immobilised, monomer injected, 1:1 fit; remark: listed apart in the source
Procedure: Single cycle kinetics with the antibodies immobilized on a CM5 chip was used to measure the binding of the antibodies to the AβpE3-40 monomer. For the measurements, 5 μg/ml of analyte antibody was immobilized on the chip. […] Regeneration of the surface between cycles was done by injecting 30 μl 3 M MgCl₂. The binding data was fitted to a 1:1 interaction model.
as §3, §4

AβpE3-42 protofibrils [9] = target: T3, AβpE3-42 protofibrils; assay: SPR, protofibrils immobilised, antibody injected, 1:1 fit, apparent; binding to AβpE3-42 protofibrils; KD in pM
Procedure: as §2, §3, §4

AβpE3-28 monomer = target: T6, AβpE3-28 monomer (UniProt P05067 674-699, pyroglutamate at position 3 (N-terminal residue)); assay: inhibition ELISA, antigen titrated in solution, AβpE3-40 coat
T6 construct: range 3-28 (Aβ numbering)
T6 sequence (P05067 674-699): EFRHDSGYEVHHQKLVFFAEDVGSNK
Procedure: (§5) The humanized antibodies were incubated at a fixed concentration (0.5 μg/ml) with titrating concentrations of the different Aβ antigens. After incubation for 45 min at 900 rpm to reach equilibrium, the antibody-Aβ samples were added to a blocked and washed ELISA plate with an AβpE3-40 coat (0.5 μM). The samples were incubated on the plate for 25 min without shaking followed by washing, incubation with detection antibody, another washing step and finally incubation with alkaline phosphatase substrate.

Aβ3-28 monomer = target: T7, Aβ3-28 monomer (UniProt P05067 674-699); assay: as above
T7 construct: range 3-28 (Aβ numbering)
Procedure: as §5

[10] = target: T8, h/m apical domain chimera (SEQ ID NO:112) (human/mouse chimera); assay: indirect ELISA: plate coated with 1 µg/ml h/m apical domain chimera, mouse IgG titrated, anti-mouse IgG-HRP; x axis printed as 'TfR (ng/ml)'
T8 construct: also called chimeric TfR1 consisting of human apical domain grafted on mouse TfR1 ectodomain
T8 chain: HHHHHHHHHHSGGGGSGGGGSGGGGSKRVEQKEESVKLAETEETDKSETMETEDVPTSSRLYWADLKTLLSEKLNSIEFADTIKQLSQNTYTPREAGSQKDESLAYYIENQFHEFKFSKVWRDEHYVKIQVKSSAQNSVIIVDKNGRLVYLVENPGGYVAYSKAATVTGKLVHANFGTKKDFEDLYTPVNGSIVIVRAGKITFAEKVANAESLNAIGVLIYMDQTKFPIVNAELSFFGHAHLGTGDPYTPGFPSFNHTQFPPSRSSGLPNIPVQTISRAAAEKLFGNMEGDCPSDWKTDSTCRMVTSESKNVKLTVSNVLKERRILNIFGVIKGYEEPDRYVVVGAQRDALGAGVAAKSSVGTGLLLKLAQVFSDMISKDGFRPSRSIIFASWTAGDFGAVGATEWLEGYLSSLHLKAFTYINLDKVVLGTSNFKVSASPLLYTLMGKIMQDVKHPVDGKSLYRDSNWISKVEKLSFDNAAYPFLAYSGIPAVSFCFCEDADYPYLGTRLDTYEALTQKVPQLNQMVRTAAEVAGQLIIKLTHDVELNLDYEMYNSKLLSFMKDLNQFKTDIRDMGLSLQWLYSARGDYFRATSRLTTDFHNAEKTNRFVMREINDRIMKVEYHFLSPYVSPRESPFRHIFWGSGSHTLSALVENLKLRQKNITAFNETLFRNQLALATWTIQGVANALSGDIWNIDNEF
Procedure: Plasma samples serially diluted from a starting dilution of 1/450 or hybridoma supernatants diluted 1/2 were added to the plates (50 μl/well; dilution buffer: PBS with 0.1% BSA and 0.05% TWEEN®-20) and incubated for 2 h at room temperature and then the plates were washed four times. […] After another wash (as above), 50 μl/well TMB substrate (K-Blue® Aqueous, Neogen) was added, and the reaction was stopped after 10-15 min with 50 μl/well of 0.5 M H₂SO₄. The optical density at 450 nm was read using a plate reader (Tecan). The endpoint titers were defined as the dilution above the average of the blank wells (background) plus 3 standard deviations of the blank wells.
In the ELISA experiment, human, mouse or three different chimeric TfR1 receptors were used to coat ELISA plates (FIGS. 30A-30E). The ELISA protocol was slightly modified as follows from the indirect ELISA described in Example 15. […] The coated plates were then blocked. Dilution series of mouse IgG of the analyzed antibodies were prepared in PBS and incubated on the ELISA plates. Unbound antibodies were then washed off before incubating wells with a HRP-conjugated secondary, anti-mouse-IgG for 1 h. Plates were then washed again before addition of HRP substrate TMB for development and detection of antibody binding to the wells. TMB development was stopped by adding 0.5 M H₂SO₄ to the wells and ELISA responses measured as the OD at 450 nm in an ELISA plate reader.

T1 sequence (P05067 674-711): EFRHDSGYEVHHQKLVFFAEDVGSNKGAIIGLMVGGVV

B1: BA002 (bispecific antibody, human IgG1, kappa)
light: EIVLTQSPLSLSVTLGQSASISCRSSQSLLDSNGKTYLHWFILRPGQSPRRLIYLVSILDSGVPDRFSGSGSGTDFTLKISRVEAEDVGVYYCVQGTHFPFTFGSGTKLEIKRTVAAPSVFIFPPSDEQLKSGTASVVCLLNNFYPREAKVQWKVDNALQSGNSQESVTEQDSKDSTYSLSSTLTLSKADYEKHKVYACEVTHQGLSSPVTKSFNRGEC
heavy 1: not shown
heavy 2: EVQLVQSGAEVVKPGASVRLSCKASGYSFTGFTMNWVRQALGQGLEWMGLINPYNGVTTYNQKFKGRLTMTRDMSTRTVYMDLSSLTYEDTAVYYCTREGNWEGVYWGQGTLVTVSSASTKGPSVFPLAPSSKSTSGGTAALGCLVKDYFPEPVTVSWNSGALTSGVHTFPAVLQSSGLYSLSSVVTVPSSSLGTQTYICNVNHKPSNTKVDKKVEPKSCDKTHTCPPCPAPELLGGPSVFLFPPKPKDTLMISRTPEVTCVVVDVSHEDPEVKFNWYVDGVEVHNAKTKPREEQYNSTYRVVSVLTVLHQDWLNGKEYKCAVSNKALPAPIEKTISKAKGQPREPQVYTLPPCRDELTKNQVSLWCLVKGFYPSDIAVEWESNGQPENNYKTTPPVLDSDGSFFLYSKLTVDKSRWQQGNVFSCSVMHEALHNHYTQKSLSLSPGGGGGSGGGGSGGGGSGGGGSDIQMTQSPSSVSASVGDRVTITCKSSQSLLASTNQKNYLAWYQQKPGKAPKLLIYWASTRESGVPSRFSGSGSGTDFTLTISSLQPEDFATYYCQQYFIYPRTFGCGTKVEIKGGGGSGGGGSGGGGSGGGGSEVQLVQSGAEVKKPGSSVKVSCKASGYIFTDYNMDWVRQAPGQCLEWIGDINPDYDTTSYNEKFKGRATLTVDKSTSTAYMELSSLRSEDTAVYYCARGGYSGSSYYHPMDYWGQGTLVTVSS
Kd (AβpE3-40 monomer [1]): 2.38 nM | koff (AβpE3-40 monomer [1]): 0.000127 s⁻¹ | kon (AβpE3-40 monomer [1]): 53500 M⁻¹ s⁻¹ | Kd [2]: 35.6 nM | koff [2]: 0.0031 s⁻¹ | kon [2]: 87000 M⁻¹ s⁻¹ | IC50 (AβpE3-42 protofibrils [3]): 3.2 nM | IC50 (AβpE3-40 monomer [4]): 0.8 nM

B2: H2L7-K12V/R83T (antibody, human IgG1, kappa)
heavy: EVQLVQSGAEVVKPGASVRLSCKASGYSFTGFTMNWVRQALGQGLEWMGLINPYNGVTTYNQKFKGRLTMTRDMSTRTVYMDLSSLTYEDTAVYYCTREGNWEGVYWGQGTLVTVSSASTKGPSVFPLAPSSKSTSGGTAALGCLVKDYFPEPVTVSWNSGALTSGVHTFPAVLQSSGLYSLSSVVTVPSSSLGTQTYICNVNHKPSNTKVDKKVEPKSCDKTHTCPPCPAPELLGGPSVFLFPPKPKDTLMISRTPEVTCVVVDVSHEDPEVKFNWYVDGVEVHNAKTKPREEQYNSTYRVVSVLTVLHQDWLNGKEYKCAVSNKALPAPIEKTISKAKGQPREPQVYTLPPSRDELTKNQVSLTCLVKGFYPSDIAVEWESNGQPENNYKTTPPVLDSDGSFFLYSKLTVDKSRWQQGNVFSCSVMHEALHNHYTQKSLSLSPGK
light: B1 light
notes: VH variant of H2L7; VL and constant domains identical to H2L7
IC50 (AβpE3-42 protofibrils [5]): 3.71 nM | IC50 (Aβ1-42 protofibrils): > 132 nM | IC50 (AβpE3-40 monomer [6]): 2.27 nM | IC50 (Aβ1-40 monomer): > 500 nM | koff (AβpE3-42 protofibrils [7]): 1.62e-05 s⁻¹ | kon (AβpE3-42 protofibrils [7]): 81100 M⁻¹ s⁻¹ | Kd (AβpE3-40 monomer [8]): 2.2 nM | koff (AβpE3-40 monomer [8]): 0.00012 s⁻¹ | kon (AβpE3-40 monomer [8]): 56200 M⁻¹ s⁻¹ | Kd (AβpE3-42 protofibrils [9]): 0.2 nM | IC50 (AβpE3-28 monomer): 5 nM | IC50 (Aβ3-28 monomer): 2260 nM

B3: 26D3 (antibody, V domains shown)
VH: EVQLQQFGVELVKPGASVKISCKASGYIFTDYNMDWVKQSHGKSLEWIGDINPDYDTTSYNEKFKGKATLTVDKSSSTAYMELRSLTSEDTAVYYCARGGYSGSSYYHPMDYWGQGTSVTVSS
VL: DIVMSQSPSSLAVSVGEKITMSCKSSQSLLYSTNQKNYLAWYQQKPGQSPELLIYWASTRESGVPDRFTGSGSGTDFTLTISNVRAEDLAVYYCQQYFIYPRTFGGGTKLEIK
notes: also called mouse antibody 26D3; clone 26D3
binding result [10]: no binding (tested: about 600 ng/ml)
